Results: the nanobody polyreactivity screen of Harvey et al. (2022)

Experiment: yeast display, Sf9 membrane polyspecificity reagent, FACS + sequencing; frameworks hold sequencing errors
Procedure, shortened: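 Polyreactivity labels are assigned by the sorting gate from which each nanobody was recovered. The gates were low and high (top ~1%), set on anti-HA fluorescence for expression and streptavidin fluorescence for reagent binding. Before sorting, galactose-induced (36–48 hours) yeast display cells were stained for 1 hour at 4 °C with 10% biotinylated, detergent-solubilized Sf9 membrane reagent.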

Sequence	polyreactivity (PSR sort gate)
QVQLVESGGGLVQAGGSLRLSWAASGSTFYAYAMGCYRQSPGNERELVATISWSGGSTYADSVKGRFTISRDNAKYTVYLQMNSMTPEDTAVYYCNGSGAFYPTQVHPGYTLWSYDDWGQGTQVTVSS	low polyreactivity
QVQLVESGGGLVQAGGSLRLSWAAYGRIVKYAMGWYREPPGKERELVAAISGSGGTTYYADSVKGRLTISRDNAKNTVEFHMKSLKPEDTAVYYCAASRPRPPSSRRMVYWGQGSQVTVSS	high polyreactivity
QVQLVESGGGLVQAGGSLRLSYAASGRTFYRYAMGWYRQAPGKERELVAVITSGSRTKYADSVKGRFTISRDNAKNTVYLQMNSLKPEDTAFYYCAARGLALEGKSSGEYWGQGTQVTVSS	high polyreactivity
QVQLVESGGGLVQAGGSLRLTCAASGFIFCSYAMRWYRQAPGKERELVAAISFRGGSTFYADSVKGRFTISRDNAKNTVYLQMNSLKPEDTAVYYCNKAAYSIHSGLSYYHWGQGTQVTVSS	low polyreactivity
QVQLVESGGGLVQAGGSLRLTCAASGFIFEEYAKGWYRPAPGKERELVAAISRRGGSTYYADSVKGRFTISRDNATNTVYLQMNSLKPEDTAVDYCATDRRYNYWGQGTQVTVSS	high polyreactivity
QVQLVESGGGLVQAGGSLRLTCAASGFIFNYNTMGWYRQAPGKERELVAGINWSGTRTYYADSVKGRFTISRDNAKNTDYLQMNSLKPEDTAVYYCNAYTQQYRSYGYWGQGTQVTVSS	high polyreactivity
QVQLVESGGGLVQAGGSLRLTCAASGFIFPWNAMAWFRQAPRKERELVAAISFSGGSTYYADSVKGRFTISRDNAKNTVYLQMNSLKPEDTAVYYCAKRTWDLRRTRHYYWGQGTQVTVSS	low polyreactivity
QVQLVESGGGLVQAGGSLRLTCAASGFIFSLNAMGWYRQAPGKERELVAAISRCGVRTYYADSVKGRFSISRDNAKNTVYLQMNSLKPEDTAVYYCATAGPYYYYSGPQYDYWGQGTHVTVSS	high polyreactivity
QVQLVESGGGLVQAGGSLRLTCAASGFIFTYNAMGWYRQAPGKERELVAAISWSGSRTNYADTVKGRFTISRDNAKHTVYLQMNSLKPEDTAVFYCAAKYKYRTYNYWGQGTQVTVSS	high polyreactivity
QVQLVESGGGLVQAGGSLRLTCAASGFIFTYPNAKGWNIQAPGKERELVAAISWRGGGTYYADSVKGRFTISRDNAKNTVYLQMNSLKPEDTAVYYCADYVPAPRRTYNYWGQGTQVTVSS	high polyreactivity
QVQLVESGGGLVQAGGSLRLTCAASGFIFVTDAMGWYRQAPGKERELVAAITNSGGTTYYADSVKGRFTISRDNAKNTVYLQMNSLKPEDPAVYYCNKQWYTATYRESYYWGQGTQVTVSS	low polyreactivity
QVQLVESGGGLVQAGGSLRLTCAASGFTFAGYAMGWYRQGPGKERELVAVITSSDSTYYADSVKGRFTISRDNAKNTVYLQMNSLKPEDTAVYYCNAADERSQGWVGYDHWGQCTQVTVSS	low polyreactivity
QVQLVESGGGLVQAGGSLRLTCAASGFTFDTYAMGWYRQAPGKEREFVATISRNSGSTYYADSVKGRFTIARDNAKNTVYLQMNSLKPEDTAVYYCNRRRYGRKSDRMNYWGQGTQVTVSS	high polyreactivity
QVQLVESGGGLVQAGGSLRLTCAASGFTFRKNVMGWYRQAPGKERELVAFISSSGGSTYYADSVKGRFTISRDNEKNTGYIPMNSLKPEETAVYYCNAGRYGSNLEYWGQATQVTVSS	low polyreactivity
QVQLVESGGGLVQAGGSLRLTCAASGFTFYGYAMGRYRQAPGKERELVAAISSSGTSTYSGDSVKGRFTISRDNAKNTVYLQMNSLKPEDTAVYYCAKDFYRRFYSWGQGTQVTLSS	high polyreactivity
QVQLVESGGGLVQAGGSLRLTCAASGFTINFYAMGGYRQAPGKERELVAAITASGGGSTYYADSVKGRFTISRDNAKNTVYLQMNSLKPEDTAVYYCNADYTGSFYTYDYWGQGTQVTVSS	low polyreactivity
QVQLVESGGGLVQAGGSLRLTCAASGFTVHNKVMGWYRQAPGKERELVATISKSGGSTYYADSVKGRFTISRDNAKNTVYLEMNSLKPVDTAVYYCARRYGDYGRYGYWGQGTQVTVSS	high polyreactivity
QVQLVESGGGLVQAGGSLRLTCAASGFTYTINGMGWYRQAPGKERELVAAINWRGGSTYYADSVKGRFTISRDNAKNTVYLQMNSLKPEDTAVYYCYAVAYIYSYAYPPYWGREHLNYWGQGTQVTVSS	low polyreactivity
QVQLVESGGGLVQAGGSLRLTCAASGGIFTDYTMGWYRQAPGKERELVSAITWTGGSTYYADSVKGRFTISRDNAKNTVYLQMNSLKPEDTAVYYCYVVKYVYIYSYWEYYFWGQGTQVTVSS	low polyreactivity
QVQLVESGGGLVQAGGSLRLTCAASGGTFGSYAMGWYRPAPGKERELVAVISSGGSTYYADSVKGRFTISRDNAKNTVYLQMNSLKPEDTAVYYCARRTRTTRGKNGYWGQGTKVTVSS	high polyreactivity
QVQLVESGGGLVQAGGSLRLTCAASGGTFYANAMGWYRQAPGTERELVAAITSGGSTNYADSVKGRFTISRDNAKNTVYLQMNSLKPEDTAVYYCNAAAQRRYWHSYFRRYDYWGQGTQVTVSS	low polyreactivity
